According to article PMC6832557, “An Enzyme- and Label-Free Fluorescence Aptasensor for Detection of Thrombin Based on Graphene Oxide and G-Quadruplex”:

Target: thrombin (bovine (plasma), UniProt P00735;P00735 318-366;367-625)
Assay: graphene oxide displacement fluorescence assay (NMM/G-quadruplex readout); graphene oxide, NMM; not given in the material (S incubated with GO for 30 min; NMM ex/em 399/610 nm)
Details: protein: commercial; copies: 1;1; label: none (label-free; NMM as G4 reporter); G-quadruplex (Se part)

B1: S (thrombin aptamer Sa + G-quadruplex part Se) (structured_DNA)
DNA: AGTCCGTGGTAGGGCAGGTTGGGGTGACTGGGTAGGGCGGGTTGGG
- binding result: binds
